# In US20240041988A1, “Use of elapidae postsynaptic neurotoxin in the treatment of over expression of inflammatory cytokines related diseases” (priority 2020, published 2024):
# B1: SEQ ID No9 (protein)
# chain: TKCYKTGDRIISEACPPGQDLCYMKTWCDVFCGTRGRVIELGCTATCPTVKPHEQITCCSTDNCNPHPKMKQ
# modifications: Ophiophagus hannah
# B2: SEQ ID No1 (protein, listed as Naja atra)
# chain: LECHNQQSSQTPTTTGCSGGETNCYKKRWRDHRGYRTERGCGCPSVKNGIEINCCTTDRCNN
# B3: SEQ ID No20 (protein, listed as Bungarus fasclatus)
# chain: RICLNQQQSTPEDQPTNGQCYIKTDCQNKTWNTHRGSRTDRGCGCPKVKPGINLRCCKTDKCNE
# System: tumor necrosis factor alpha (TNF-alpha)
# Test: Carrageenan pleural inflammation rat model, serum TNF-alpha by ELISA
# Format: in vivo, Wistar rats
# Settings: 200 μg/kg oral (intragastric) 1 hour before carrageenan; rat tail vein blood 6 hours after carrageenan; n = 10; inflammation group 61.30 ± 7.86, saline control 42.70 ± 5.93
# Experimental: (§1) 140 Wistar rats (200-240 g) are randomly divided into 14 groups, and each group is 10. The preparation method comprises the following steps: (group 1) only receiving sterile normal saline ([…]) (control group); (group 2) carrageenan inflammation modeling+oral normal saline 10 ml/kg (inflammation group); (Group 3) Carrageenan Inflammation modeling+oral Naja atra postsynaptic neurotoxin (SEQ ID NO 1) 200 μg/kg prepared into a liquid state and continuous intragastric administration performed; (Group 4) Carrageenan Inflammation modeling+oral Naja atra postsynaptic neurotoxin (SEQ ID NO 1) 800 μg/kg prepared into a liquid state and continuous intragastric administration performed. (Group 5-14) The postsynaptic neurotoxin of Bungarus multicinctus, Ophiophagus Hannah, Naja kaouthia, Dendroaspis polylepis, Bungarus fasclatus, through the same administration model, that means carrageenan inflammation modeling+oral administration of 200 μg/kg and 800 μg/kg two doses respectively and continuously intragastric administration, so that the rat is divided into 14 groups.
# (§2) Except for the […], 0.1 ml of sterile normal saline+carrageenan (CG, 1%) is injected into the rest 13 groups through pleural cavities for inflammation modeling. The preparation method comprises the following steps: 1 hour before molding, orally administration of normal saline or different types of postsynaptic neurotoxin with different doses respectively in each group, 6 hours after the carrageenan injection, collecting rat tail vein blood to detect the concentration of IL-1 beta and TNF-alpha.
# (§3) The serum of the collected rat tail vein blood is separated and collected by using a commercial ELISA assay kit, and biochemical evaluation is carried out on the concentration of the tumor necrosis factor alpha (TN F-alpha) and interleukin 1 beta (IL-1 beta) according to the instructions of experimental step of the kit's manufacturer.
row,Molecule,TNF-a blood average concentration (x ± s)
1,B1,54.80 ± 5.01 ng/L
2,B2,53.70 ± 6.32 ng/L
3,B3,52.82 ± 6.55 ng/L

# Same assay, conditions: 800 μg/kg oral (intragastric) 1 hour before carrageenan; rat tail vein blood 6 hours after carrageenan; n = 10; inflammation group 61.30 ± 7.86, saline control 42.70 ± 5.93
row,Molecule,TNF-a blood average concentration (x ± s)
1,B1,51.20 ± 5.76 ng/L
2,B2,50.60 ± 5.89 ng/L
3,B3,47.81 ± 5.72 ng/L

# System: interleukin 1 beta (IL-1 beta)
# Test: Carrageenan pleural inflammation rat model, serum IL-1 beta by ELISA
# Format: in vivo, Wistar rats
# Settings: 200 μg/kg oral (intragastric) 1 hour before carrageenan; rat tail vein blood 6 hours after carrageenan; n = 10; inflammation group 52.40 ± 6.74, saline control 35.20 ± 4.78
# Experimental: as §1, §2, §3
row,Molecule,IL-1β blood average concentration (x ± s)
1,B1,44.50 ± 4.97 ng/L
2,B2,45.40 ± 4.95 ng/L
3,B3,44.10 ± 4.32 *^ ng/L

# Same assay, conditions: 800 μg/kg oral (intragastric) 1 hour before carrageenan; rat tail vein blood 6 hours after carrageenan; n = 10; inflammation group 52.40 ± 6.74, saline control 35.20 ± 4.78
row,Molecule,IL-1β blood average concentration (x ± s)
1,B1,41.70 ± 4.23 ng/L
2,B2,41.30 ± 4.31 ng/L
3,B3,40.80 ± 3.78 ng/L
